Where “and” joins values, the source holds several entries; their conditions need not be identical. Equal entries are not always repeated.
T1: Lrp6 ectodomain fragment comprising the first two tandem beta-propeller-epidermal growth factor-like domain … (human, UniProt O75581 20-631)
T1 construct: signal peptide in the construct; low-density lipoprotein receptor related protein 6, human, residues 1-631 (P1E1P2E2)
T1 sequence (looked up): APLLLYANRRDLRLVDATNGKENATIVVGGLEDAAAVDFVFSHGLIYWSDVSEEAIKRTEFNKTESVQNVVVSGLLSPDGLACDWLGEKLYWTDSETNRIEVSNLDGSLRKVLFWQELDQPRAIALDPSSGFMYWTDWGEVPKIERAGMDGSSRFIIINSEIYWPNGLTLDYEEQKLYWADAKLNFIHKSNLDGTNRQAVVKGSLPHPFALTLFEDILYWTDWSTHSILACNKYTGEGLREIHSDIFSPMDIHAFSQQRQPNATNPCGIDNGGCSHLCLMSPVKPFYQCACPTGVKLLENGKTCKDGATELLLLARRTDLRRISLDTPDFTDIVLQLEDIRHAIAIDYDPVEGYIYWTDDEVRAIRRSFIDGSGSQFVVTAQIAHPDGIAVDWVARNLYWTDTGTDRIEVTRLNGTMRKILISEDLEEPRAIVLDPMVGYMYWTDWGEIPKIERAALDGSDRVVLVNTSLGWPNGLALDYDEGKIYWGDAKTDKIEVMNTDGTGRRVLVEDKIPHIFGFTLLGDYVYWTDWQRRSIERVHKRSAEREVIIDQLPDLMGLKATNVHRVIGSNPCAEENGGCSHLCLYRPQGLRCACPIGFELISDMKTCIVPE

T2: Frizzled5 cysteine-rich domain, mouse (mouse, UniProt Q9EQD0 31-176)
T2 sequence (looked up): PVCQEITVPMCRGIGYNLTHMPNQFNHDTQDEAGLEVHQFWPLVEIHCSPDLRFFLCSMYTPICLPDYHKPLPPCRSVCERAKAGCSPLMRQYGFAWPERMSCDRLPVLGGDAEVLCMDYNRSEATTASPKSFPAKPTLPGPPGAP

T3: Frizzled8 cysteine-rich domain, mouse (mouse, UniProt Q61091 30-170)
T3 sequence (looked up): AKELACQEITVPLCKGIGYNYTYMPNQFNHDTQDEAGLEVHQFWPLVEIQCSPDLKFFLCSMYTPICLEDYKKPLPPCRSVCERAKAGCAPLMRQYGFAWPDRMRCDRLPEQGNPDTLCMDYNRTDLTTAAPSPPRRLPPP

B1: Frizzled4 cysteine-rich domain (Fz4CRD), human (domain or fragment, UniProt Q9ULV1 42-179, looked up)
chain: ERRCDPIRISMCQNLGYNVTKMPNLVGHELQTDAELQLTTFTPLIQYGCSSQLQFFLCSVYVPMCTEKINIPIGPCGGMCLSVKRRCEPVLKEFGFAWPESLNCSKFPPQNDHNHMCMEGPGDEEVPLPHKTPIQPGE
modifications: N-linked glycans at Asn59 and Asn144 (full, or cut to N-acetylglucosamine by Endo-F1)
notes: Frizzled4 cysteine-rich domain, human, residues 42-179; Glycosylated and deglycosylated samples of the same construct are kept as one molecule; the assay's format tells which was used; also called human Fz4CRD; source: HEK293T, secreted, purified (IMAC, HRV-3C cleavage, IMAC, SEC); with kifunensine and Endo-F1 treatment for crystallisation and the deglycosylated samples; fully glycosylated for …
B2: Biotinylated human Norrin wild-type (pHL-Avitag3 construct) (ligand, UniProt Q00604 25-133, looked up)
chain: KTDSSFIMDSDPRRCMRHHYVDSISHPLYKCSSKMVLLARCEGHCSQASRSEPLVSFSTVLKQPFRSSCHCCRPQTSKLKALRLRCSGGMRLTATYRYILSCHCEECNS
modifications: biotin on the C-terminal BirA recognition sequence (in vivo biotinylation)
notes: Norrin (Norrie Disease Protein), human, UniProtKB/Swiss-Prot Q00604; The same plasmids were used in the luciferase reporter assays; also called Norrin WT; source: HEK293T, co-transfected with BirA-ER for in vivo biotinylation, secreted

Tests used:
[1] = molecular target: T4, Norrin (Norrie Disease Protein), recombinant wild-type after removal of the SUMO fusion tag (human, UniProt Q00604 25-133); test: SAXS; deglycosylated Norrin-Fz4CRD complex at 1.02 and 2.14 mg/ml in 10 mM HEPES, 0.5 M NaCl, without SOS; 293 K; settings: both partners purified
T4 construct: Norrin (Norrie Disease Protein), human, UniProtKB/Swiss-Prot Q00604, residues 25-133; Disulphide-linked homodimer (Cys93-Cys95, Cys95-Cys93, Cys131-Cys131); also called untagged Norrin; Norrin wild-type; source: for the complex co-expressed with Fz4CRD in HEK293T with kifunensine and valproic acid, purified (IMAC, SEC); not shown: Strep-II, N-terminal, cleaved; His8, N-terminal, cleaved; SUMO (S. …)

[2] = molecular target: T5, Norrin R107E/R109E/R115L (in the Norrin R107E/R109E/R115L-Fz4CRD complex) (human, UniProt Q00604 25-133, R107E | R109E | R115L); test: SEC-MALS; Norrin-Fz4CRD complex at 25 uM (glycosylated and deglycosylated), without SOS, on Superdex S200 10/300 GL in 10 mM HEPES, pH 7.5, 0.15 mM NaCl (so in the source); settings: both partners purified
T5 construct: Norrin, human, UniProtKB/Swiss-Prot Q00604, residues 25-133; source: HEK293T, complex with Fz4CRD, purified (SEC)

[3] = molecular target: T1, Lrp6 ectodomain fragment comprising the …; test: SPR; Biacore T200, 25 C, 10 mM HEPES, pH 7.5, 0.15 M NaCl, 0.005% Tween20; biotinylated Norrin variants captured on streptavidin coupled to a CM5 chip; glycosylated FzCRD proteins or Lrp6 P1E1P2E2 as analytes; equilibrium binding, 1:1 Langmuir model; whether the biotinylated Norrin was purified before capture is not told
[4] = molecular target: T2, Frizzled5 cysteine-rich domain, mouse; test: as above
[5] = molecular target: T3, Frizzled8 cysteine-rich domain, mouse; test: as above
[6] = molecular target: B1; test: as above

| Binder | stoichiometry N [1] | stoichiometry N [2] | Kd [3] | Kd [4] | Kd [5] | Kd [6] |
| --- | --- | --- | --- | --- | --- | --- |
| B1 | 2 Fz4CRD per Norrin dimer (printed 2:2) | 2 Fz4CRD per Norrin dimer (printed 2:2) | – | – | – | – |
| B2 | – | – | 2870 nM | 42 µM | 64 µM | 1100 nM and 1000 nM |

Source: paper PMC4497409, “Structure and functional properties of Norrin mimic Wnt for signalling with Frizzled4, Lrp5/6, and proteoglycan” (eLife, 2015)
